Assay results: US20260055369A1, “METHOD FOR GENERATING CELLS OF THE T CELL LINEAGE WITH ENGINEERING BROADLY REACTIVE HUMAN NOTCH LIGAND” (H. Lee Moffitt Cancer Center and Research Institute, Inc., priority 2022, published 2026)
Where two headings read alike, the source gives them in different places.

B1: Delta^MAX: engineered human DLL4 consensus variant with 10 mutations combining DLL4.v1 and DLL4.v2 mutations; sequence matches SEQ ID NO: 4/10 (protein)
chain: SSVFQLQLQEFINERGVLASGRPCEPGCRTFFRVCLKHFQAVVSPGPCTFGTVSTPVLGTNSFAVRDDSSGGGRNPLQLPLNFTWPGTFSLIIEAWHAPGDDLRPEALPPDALISKFAIQGSLAVGQNWLLDEQTSTLTRLRYSYRVICSDNYYGDNCSRLCKKRNDYFGHYVCQPDGNPSCLPGWTGEYCQQPICLSGCHEQNGYCSKPAECLCRPGWQGRLCNECIPHPGCRHGTCSTPWQCLCDEGWGGLYCDQDLNYCTHHSPCKNGATCRNSGPRSYTCTCRPGYTGVDCELELSECDSNPCRNGGSCKDQEDGYHCLCPPGYYGLHCEHSTLSCADSPCFNGGSCRERNQGANYACECPPNFTGSNCE
B2: WT DLL4: human wild-type Delta-like 4 (N-EGF5, residues 27-400), SEQ ID NO: 1 (protein)
chain: SGVFQLQLQEFINERGVLASGRPCEPGCRTFFRVCLKHFQAVVSPGPCTFGTVSTPVLGTNSFAVRDDSSGGGRNPLQLPFNFTWPGTFSLIIEAWHAPGDDLRPEALPPDALISKIAIQGSLAVGQNWLLDEQTSTLTRLRYSYRVICSDNYYGDNCSRLCKKRNDHFGHYVCQPDGNLSCLPGWTGEYCQQPICLSGCHEQNGYCSKPAECLCRPGWQGRLCNECIPHNGCRHGTCSTPWQCTCDEGWGGLFCDQDLNYCTHHSPCKNGATCSNSGQRSYTCTCRPGYTGVDCELELSECDSNPCRNGGSCKDQEDGYHCLCPPGYYGLHCEHSTLSCADSPCFNGGSCRERNQGANYACECPPNFTGSNCE

Columns and labels:
[1] = Thermal denaturation by differential scanning fluorimetry (DSF); assay type: physicochemical; settings: for melting temperature (Tm): N-EGF5, 5 μM in HBS
Description: WT DLL4 and Delta^MAX (N-EGF5) were diluted at 5 μM in 20 μL of HBS buffer, and then combined with 10 μM (5×) SYPRO Orange (ThermoFisher Scientific) prepared in 100% DMSO (final DMSO concentration was 0.1%). This mix was equilibrated at room temperature for 30 min. Proteins were analyzed in a 96-well microtiter plate using a StepOnePlus RT-PCR system (Applied Biosystems) applying a continuous heating gradient from 25 to 99° C. with a step of 1% of temperature/min. Data was normalized and represented as the mean of three independent technical replicates. Similar Tm values were obtained for the replica measurements.

Notch1 = experiment: Notch inhibition assay with soluble antagonists and WT DLL4 coated plates (CHO-K1 N1-Gal4); assay type: cell-based
Notch1, sequence (P46531 19-1664 limits assumed): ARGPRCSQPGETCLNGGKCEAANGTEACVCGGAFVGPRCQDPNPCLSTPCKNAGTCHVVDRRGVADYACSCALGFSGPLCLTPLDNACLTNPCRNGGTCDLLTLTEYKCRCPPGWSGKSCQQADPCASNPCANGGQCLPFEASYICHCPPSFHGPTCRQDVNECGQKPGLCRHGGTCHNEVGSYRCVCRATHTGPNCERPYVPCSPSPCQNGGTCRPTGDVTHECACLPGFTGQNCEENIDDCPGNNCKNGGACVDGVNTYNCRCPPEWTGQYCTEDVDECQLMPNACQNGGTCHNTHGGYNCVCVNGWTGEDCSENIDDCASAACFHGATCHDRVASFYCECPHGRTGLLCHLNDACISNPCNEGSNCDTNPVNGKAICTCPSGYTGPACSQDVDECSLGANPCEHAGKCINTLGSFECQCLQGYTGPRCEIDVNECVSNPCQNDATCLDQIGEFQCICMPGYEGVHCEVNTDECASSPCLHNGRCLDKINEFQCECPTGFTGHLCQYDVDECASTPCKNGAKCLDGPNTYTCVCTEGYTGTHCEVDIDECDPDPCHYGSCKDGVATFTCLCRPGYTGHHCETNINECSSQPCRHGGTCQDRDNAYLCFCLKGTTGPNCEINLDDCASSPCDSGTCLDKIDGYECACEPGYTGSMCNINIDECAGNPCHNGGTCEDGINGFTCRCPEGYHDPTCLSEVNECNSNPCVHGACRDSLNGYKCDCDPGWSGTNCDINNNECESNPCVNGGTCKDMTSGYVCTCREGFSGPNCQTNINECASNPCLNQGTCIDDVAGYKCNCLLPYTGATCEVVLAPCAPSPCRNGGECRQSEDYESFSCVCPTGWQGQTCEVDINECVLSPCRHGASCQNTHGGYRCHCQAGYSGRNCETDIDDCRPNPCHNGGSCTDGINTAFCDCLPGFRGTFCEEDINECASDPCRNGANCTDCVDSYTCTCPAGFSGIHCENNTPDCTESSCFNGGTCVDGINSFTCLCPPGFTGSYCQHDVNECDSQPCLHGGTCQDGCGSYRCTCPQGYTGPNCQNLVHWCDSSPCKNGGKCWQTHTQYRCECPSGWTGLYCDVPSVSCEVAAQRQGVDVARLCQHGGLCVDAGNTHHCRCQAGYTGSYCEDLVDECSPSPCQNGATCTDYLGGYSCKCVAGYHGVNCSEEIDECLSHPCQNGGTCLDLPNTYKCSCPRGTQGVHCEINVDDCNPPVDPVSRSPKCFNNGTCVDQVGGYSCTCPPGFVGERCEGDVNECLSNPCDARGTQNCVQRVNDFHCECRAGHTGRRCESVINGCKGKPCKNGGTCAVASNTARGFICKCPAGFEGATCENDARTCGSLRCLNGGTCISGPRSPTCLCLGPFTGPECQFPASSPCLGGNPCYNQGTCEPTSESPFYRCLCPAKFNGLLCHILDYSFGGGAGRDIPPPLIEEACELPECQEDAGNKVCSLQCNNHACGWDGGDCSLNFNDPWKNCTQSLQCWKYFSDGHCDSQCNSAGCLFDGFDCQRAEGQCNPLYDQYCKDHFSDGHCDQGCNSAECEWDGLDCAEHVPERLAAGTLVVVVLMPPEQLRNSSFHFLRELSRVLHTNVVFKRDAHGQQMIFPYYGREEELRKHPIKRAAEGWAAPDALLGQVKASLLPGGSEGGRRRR
Notch1, sequence (P46531 1665-1756 limits assumed): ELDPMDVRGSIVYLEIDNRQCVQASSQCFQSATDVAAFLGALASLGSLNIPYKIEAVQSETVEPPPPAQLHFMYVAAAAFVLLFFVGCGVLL
Description: For CHO-K1 N1-Gal4 reporter cells, on day one, biotinylated WT DLL4 was pre-coated in 96-well plates at 50 nM following the same protocol described above. Next, CHO-K1 N1-Gal4 cells were detached with trypsin-EDTA, washed, and diluted at 200,000 cells/mL in α-MEM media. Ten-fold serial dilutions of non-biotinylated DLL4 ligands (N-EGF5) were prepared in DPBS starting at 600 nM. Next, soluble inhibitors were mixed in ratio 1:1 with CHO-K1 N1-Gal4 200,000 cells/mL stocks for 15 min at room temperature to pre-block Notch receptors. Two hundred microliters of inhibition reactions containing 20,000 reporter cells were added to WT DLL4-coated wells, and plates incubated for 24 hours at 37° C. and 5% CO2. When DAPT (gamma-secretase inhibitor, Sigma) and BB-94 (ADAM metalloprotease inhibitor, Sigma) were used, stock solutions were prepared at 100 μM in 8% DMSO. Appropriate DMSO controls were included to test Notch activation and cell viability. Final DMSO concentration in the experiment was kept below 1%. For comparisons of Delta^MAX with DAPT and BB-94, soluble inhibitors were serially diluted in DPBS using 9-folds, incubated with CHO-K1 N1-Gal4 reporter cells, and added to wells as described above. On day two, assay plates were washed with 200 μL of DPBS, CHO-K1 N1-Gal4 cells detached with trypsin-EDTA, quenched with 200 μL of α-MEM media, and Notch activation measured by flow cytometry (BD Accuri C6 Plus). The data represent the mean fluorescent intensity as percentage of Notch activation, relative to Notch activation in the absence of inhibitors±s.d. of three independent biological replicates.

[2] = test system: hPSC-derived neural progenitors; experiment: Differentiation of hPSC-derived neural progenitors into neurons (qPCR markers); assay type: cell-based, human; settings: for neural progenitor marker SOX2 expression / neuronal markers (MAPT, SNAP25, DCX, VGLUT2, TBR1) expression: soluble protein 10, 100, 1,000 nM, day 8-14, qPCR
Description: Neural differentiation of hPSCs was performed in two separate phases over 14 days. In the first phase, to differentiate hPSCs into neural progenitors for 7 days, a modification of a previously-reported method was used. However, in this study, differentiation conducted in Chemically Defined Media 2 (CDM2) media, whose composition has been described previously: 50% IMDM+GlutaMAX (Thermo Fisher)+50% F12+GlutaMAX (Thermo Fisher)+1 mg/mL polyvinyl alcohol (Sigma)+1% v/v chemically defined lipid concentrate (Thermo Fisher)+450 μM 1-thioglycerol (Sigma)+0.7 μg/mL recombinant human insulin (Sigma)+15 μg/mL human transferrin (Sigma)+1% v/v penicillin/streptomycin (Thermo Fisher). To create CDM2, polyvinyl alcohol was brought into suspension by gentle warming and magnetic stirring, and the media was sterilely filtered (through a 0.22 μm filter) prior to use. Throughout the first 7 days, differentiation media was changed every 24 hours. The second phase was to differentiate hPSC-derived neural progenitors into neurons for 7 days, from the day 8-14 interval. Neuronal differentiation media was modified from a previously-reported method^9. From day 8-14, cells were differentiated in BDNF (20 ng/ml, PeproTech), GDNF (20 ng/ml, PeproTech), Forskolin (10 μM, Tocris), 2-Phospho-L-ascorbic acid (0.2 mM, Sigma-Aldrich), with the basal media compositions varying depending on the day of differentiation. On day 8, 25% Neurobasal media+75% CDM2 media was used; on day 9, 50% Neurobasal media+50% CDM2 media was used; on day 10, 75% Neurobasal media+25% CDM2 media was used; on days 11-14, 100% Neurobasal media was used. The composition of Neurobasal media was: Neurobasal basal media (Thermo Fisher)+1% v/v N2 (Thermo Fisher)+2% v/v B27 (Thermo Fisher)+1% v/v penicillin/streptomycin (Thermo Fisher), which was filtered through a sterilizing 0.22 μM filter before use. In summary, starting on day 8 of differentiation, Neurobasal media was added in an increasing ¼th increment on a daily basis. However, to emphasize, throughout the entire day 8-14 interval, cells were exposed to the same concentration of neuronal differentiation signals (BDNF, GDNF, Forskolin and 2-Phospho-L-ascorbic acid), although different basal medias were used on different days.
To test the effect of Notch signaling on neuronal differentiation, starting on day 8, hPSC-derived neural progenitors were treated with the aforementioned neuronal differentiation signals in the presence or absence of soluble Delta^MAX (0-1,000 nM), soluble wild-type DLL4 (0-1,000 nM), or DAPT (10,000 nM, Tocris).
After differentiation of hPSCs into neurons as described above, gene expression was analyzed using RNA extraction, reverse transcription, and quantitative PCR (qPCR) as previously described. First, cells were lysed with RNeasy Lysis Buffer (Qiagen) and stored at −20° C. Cell lysates were then thawed, and RNA was extracted using the RNeasy Mini Plus Kit (Qiagen) as per the manufacturer's instructions and dissolved in H2O. Next, 300 ng of RNA was reverse transcribed into complementary DNA (cDNA) using the High-Capacity cDNA Reverse Transcription Kit (Applied Biosystems) according to the manufacturer's protocol. Total cDNA was diluted 1:20 in H2O and qPCR was performed with the SensiFAST SYBR Lo-ROX Kit (Bioline) using 10 μL qPCR reactions per well in a 384-well plate. Each individual reaction contained 5.0 μL 2× SensiFAST SYBR qPCR Master Mix+4.6 μL cDNA+0.4 μL of 10 μM primer stock (5 μM forward+5 μM reverse primers). […]

| Molecule | increase in Tm relative to WT DLL4 (ΔTm) [1] | melting temperature (Tm) [1] | IC50 (Notch1; comparison with DAPT and BB-94, plates coated with 50 nM WT DLL4, FIG. 4B, read-out: IC50 for inhibition of Notch1 activation) | potency relative to BB-94 (Notch1; ratio of IC50) | potency relative to DAPT (Notch1; ratio of IC50) | IC50 (Notch1; soluble ECD, plates coated with 50 nM WT DLL4, 24 hours, FIG. 4A, read-out: IC50 for inhibition of Notch1 signaling) | neuronal differentiation compared with 10 μM of DAPT ([2]; 1 μM soluble protein) | neural progenitor marker SOX2 expression [2] | neuronal markers (MAPT, SNAP25, DCX, VGLUT2, TBR1) expression [2] | reduction of reporter activity (Notch1; soluble, highest concentration tested (300 nM)) |
| --- | --- | --- | --- | --- | --- | --- | --- | --- | --- | --- |
| B1 | 11 °C | 58 °C | 1 nM | 1,000 fold | 40 fold | 0.6 nM | comparable to, if not superior to | repressed | sharply increased |  |
| B2 |  | 47 °C |  |  |  |  |  | failed to upregulate neuronal markers or to repress neural progenitor markers | failed to upregulate neuronal markers | ~25% |
